This note sets out measurements from PMC12049489.

What is called Kd is the concentration at which binding is half-saturated.

Holding throughout (assay): SPR
(In SPR one partner is held on a chip, and binding of the other changes the refractive index at the surface.)

In test [1] the target is anti-BACE1 hIgG1 M252Y / Q311A / N434Y / Y436I (human).
For test [2], the target named is anti-BACE1 hIgG1 M252Y / Q311I / N434Y / Y436I (human).
For test [3], the target named is anti-BACE1 hIgG1 M252Y / T307Q / Q311A / N434Y (human).
Test [4] deals with anti-BACE1 hIgG1 M252Y / V308P / N434Y (human).
For test [5], the target named is anti-BACE1 hIgG1 Q5 (M252Y / Q311I / N434Y / Y436I) (human).
In test [6] the target is anti-BACE1 hIgG1 Q7 (M252Y / Q311A / N434Y / Y436I) (human).
Test [7] has as its target anti-Aβ hIgG4 YEY (human).
A further test addresses M252F mIgG2a (mouse).
The target of another test is M252Y mIgG2a (mouse).
Test [8] concerns the target M252Y.Q309T mIgG2a (mouse).

For “human neonatal Fc receptor (hFcRn) (from UniProt P55899 24-365; P61769 21-119)”, the Kd in test [1] was found to be 6 nM; in test [2], 252 nM; in [3], 333 nM; in test [4] it was 127 nM; in [5] it was 252 nM; in test [6] it was 6 nM.
The substance “cynomolgus monkey FcRn (from UniProt Q8SPV9 24-365) (receptor)” displayed a Kd in test [7] of 9 nM.
In the case of “mouse FcRn (from UniProt Q61559 22-365) (receptor)”, the Kd came out at 3320 nM with M252F mIgG2a (mouse), 826 nM with M252Y mIgG2a (mouse) and 308 nM in [8].
